{
  "source": "the supplement of paper PMC9170038",
  "tested_on": "MS2 coat protein",
  "assay": "apparent KD of MS2 coat protein; designed switch direction (-1 OFF switch, 1 ON switch): -1; higher = weaker reporter binding",
  "outline": "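The apparent KD reported per design is the median over clusters of curve fits to normalised cluster fluorescence. The RNA switches were transcribed on Illumina chips by stalled E. coli RNA polymerase. SNAP-549-labelled MS2 coat protein was titrated from 0.7 or 1.5 nM, doubling up to 3 µM, in Tris-HCl pH 7.5 buffer containing KCl, MgCl2, BSA, DTT, tRNA and Tween-20, with no input, 200 uM small-molecule ligand, or an oligonucleotide input.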",
  "key": {"[1]": {"conditions": "Eterna round: R95, input ligand: FMN 200 uM"}, "[2]": {"conditions": "Eterna round: R95, input ligand: microRNA oligo, concentration not stated"}, "[3]": {"conditions": "Eterna round: R95, input ligand: none"}, "[4]": {"conditions": "input ligand: microRNA oligo, concentration not stated"}},
  "data": [
    {"sequence": "UACCUAAUGGGUGUUUCUCACAUGAGGAUCACCCAUGUCACUAGCUUUUUGCUCAUCUUAUCGAAACACCCUUAGUC [Birerage] (puzzle: Sensor v3, turn-off variant 1)", "values": [
      {"measurement": "apparent KD of MS2 coat protein", "setting": "[1]", "value": 21.3, "unit": "nM"},
      {"measurement": "apparent KD of MS2 coat protein", "setting": "[2]", "value": 10.2, "unit": "nM"},
      {"measurement": "apparent KD of MS2 coat protein", "setting": "[3]", "value": 20.8, "unit": "nM"}
    ]},
    {"sequence": "UACCUAUAGUAAGGAUAUCAUUGCGAUUAGCUAUGAGAAGGUACACAUGAGGAUCACCCAUGUCCUCCAAUUAACCGAAAGGUA [7th something] (Eterna round: R96, puzzle: Exclusion NG 1)", "values": [
      {"measurement": "apparent KD of MS2 coat protein", "setting": "input ligand: FMN 200 uM", "value": 318, "unit": "nM"},
      {"measurement": "apparent KD of MS2 coat protein", "setting": "[4]", "value": 170, "unit": "nM"},
      {"measurement": "apparent KD of MS2 coat protein", "setting": "input ligand: none", "value": 178, "unit": "nM"}
    ]},
    {"sequence": "UACCUGAGGCAAAGCUUUAGGUAUACAUGAGGAUCACCCAUGUAGGAUAUGGUAGGCUUUGCUUACCAGAAGGACAUGUUAAUU [Mat - Exclusion NG 3 - Mod of JL - D32] (Eterna round: R96, puzzle: Exclusion NG 3)", "values": [
      {"measurement": "apparent KD of MS2 coat protein", "setting": "input ligand: FMN 200 uM", "value": 161, "unit": "nM"},
      {"measurement": "apparent KD of MS2 coat protein", "setting": "[4]", "value": 30.4, "unit": "nM"},
      {"measurement": "apparent KD of MS2 coat protein", "setting": "input ligand: none", "value": 39.6, "unit": "nM"}
    ]},
    {"sequence": "UACGAAUUAGGAUAUGCAAUGGGCUCGCUUUCCUUCGAUAAACUUGAGGAUCACCCAAGUAGAAGGAAUUUGUA [Mod 37 - Jieux - Exclusion 2] (Eterna round: R97, puzzle: Exclusion 2)", "values": [
      {"measurement": "apparent KD of MS2 coat protein", "setting": "input ligand: FMN 200 uM", "value": 14.8, "unit": "nM"},
      {"measurement": "apparent KD of MS2 coat protein", "setting": "input ligand: none", "value": 12.9, "unit": "nM"}
    ]},
    {"sequence": "UACGAGUCAGGAUAUUGGGCAAUAGCAUUACGGAACGAUCACAAGAAGGGACAUGAGGAUCACCCAUGUUAUAU [Candy Rainbow 3] (puzzle: Exclusion 4)", "values": [
      {"measurement": "apparent KD of MS2 coat protein", "setting": "[2]", "value": 22.3, "unit": "nM"}
    ]},
    {"sequence": "UACUGGACAGGAUAUGUUCUUGAGCACUUGAGGAUCACCCAAGUCAUCAAGAACUCAGGCACAGAAGGGUUUAUGC [salish99_ex5_r4_007] (Eterna round: R97, puzzle: Exclusion 5)", "values": [
      {"measurement": "apparent KD of MS2 coat protein", "setting": "input ligand: FMN 200 uM", "value": 19.1, "unit": "nM"},
      {"measurement": "apparent KD of MS2 coat protein", "setting": "input ligand: none", "value": 14, "unit": "nM"}
    ]},
    {"sequence": "UACUUCCGAGGAUAUACAUGAGGAUCACCCAUGUGCUUCAGCAUCGAAAGAUGCAUGGGUAGAAGGCGGUAGUU [LRO-Excl3-19] (puzzle: Exclusion 3)", "values": [
      {"measurement": "apparent KD of MS2 coat protein", "setting": "[2]", "value": 36.6, "unit": "nM"}
    ]},
    {"sequence": "UAGAAAUUCAACGAGUGAAACAUGAGGAUCACCCAUGUGGUGGUAAGGAACAAGCUUUUUGCACGUACUUAUAAGAA [JR_SV3TOV1_Sub003] (puzzle: Sensor v3, turn-off variant 1)", "values": [
      {"measurement": "apparent KD of MS2 coat protein", "setting": "[1]", "value": 239, "unit": "nM"},
      {"measurement": "apparent KD of MS2 coat protein", "setting": "[2]", "value": 422, "unit": "nM"},
      {"measurement": "apparent KD of MS2 coat protein", "setting": "[3]", "value": 437, "unit": "nM"}
    ]},
    {"sequence": "UAGAGACAUGAGGAUCACCCAUGUGAGGAUAUAGAGGAAGAUUGCGAGAGGGAGAGGACUAGAAGGCACAGUGA [JR_Exclu1_Sub034] (puzzle: Exclusion 1)", "values": [
      {"measurement": "apparent KD of MS2 coat protein", "setting": "[1]", "value": 31.4, "unit": "nM"},
      {"measurement": "apparent KD of MS2 coat protein", "setting": "[2]", "value": 35.2, "unit": "nM"},
      {"measurement": "apparent KD of MS2 coat protein", "setting": "[3]", "value": 47.5, "unit": "nM"}
    ]},
    {"sequence": "UAGAUGUGAGGAUAUGGUAAAGAUAAGAUGAUGAAAGAACUCCAGAAGGCACAUGAGGAUCACCCAUGUAGAUG [JL-ex4-2.15 Jieux mod] (puzzle: Exclusion 4)", "values": [
      {"measurement": "apparent KD of MS2 coat protein", "setting": "[1]", "value": 78.1, "unit": "nM"},
      {"measurement": "apparent KD of MS2 coat protein", "setting": "[2]", "value": 22.3, "unit": "nM"},
      {"measurement": "apparent KD of MS2 coat protein", "setting": "[3]", "value": 26, "unit": "nM"}
    ]},
    {"sequence": "UAGCAAGCAAUAAGAUCCCACAUGAGGAUCACCCAUGUGCUCGUCUUAUAAAAGGUUUCGACGAAAACGUCGAGACC [Eli 91 v28] (Eterna round: R97, puzzle: Sensor, turn-off variant 1)", "values": [
      {"measurement": "apparent KD of MS2 coat protein", "setting": "input ligand: FMN 200 uM", "value": 19.8, "unit": "nM"},
      {"measurement": "apparent KD of MS2 coat protein", "setting": "input ligand: none", "value": 16, "unit": "nM"}
    ]},
    {"sequence": "UAGCAUUGCCAAAGGUAGUGCUUUACAUGAGGAUCACCCAUGUAGGAUAUGGUAGGCAAAGCUUACCAGAAGGACAUGAUAAUU [Mat - Exclusion NG 3 - Mod of JL - D12] (Eterna round: R96, puzzle: Exclusion NG 3)", "values": [
      {"measurement": "apparent KD of MS2 coat protein", "setting": "input ligand: FMN 200 uM", "value": 167, "unit": "nM"},
      {"measurement": "apparent KD of MS2 coat protein", "setting": "[4]", "value": 45.1, "unit": "nM"},
      {"measurement": "apparent KD of MS2 coat protein", "setting": "input ligand: none", "value": 56.1, "unit": "nM"}
    ]},
    {"sequence": "UAGCAUUGCCUUUGGUAGUGCUUUACAUGAGGAUCACCCAUGUAGGAUAUGGUAGGCAAAGCUUACCAGAAGGACAUGAUAAUU [Mat - Exclusion NG 3 - Mod of JL - D11] (Eterna round: R96, puzzle: Exclusion NG 3)", "values": [
      {"measurement": "apparent KD of MS2 coat protein", "setting": "input ligand: FMN 200 uM", "value": 198, "unit": "nM"},
      {"measurement": "apparent KD of MS2 coat protein", "setting": "[4]", "value": 51.6, "unit": "nM"},
      {"measurement": "apparent KD of MS2 coat protein", "setting": "input ligand: none", "value": 76, "unit": "nM"}
    ]},
    {"sequence": "UAGUGACAUGAGGAUCACCCAUGUGAGGAUAUAGUGAGAGAAAAAAGGAGAGAGAGGACUAGAAGGCACAGUGA [JR_Exclu1_Sub032] (puzzle: Exclusion 1)", "values": [
      {"measurement": "apparent KD of MS2 coat protein", "setting": "[1]", "value": 76.6, "unit": "nM"},
      {"measurement": "apparent KD of MS2 coat protein", "setting": "[2]", "value": 52.4, "unit": "nM"},
      {"measurement": "apparent KD of MS2 coat protein", "setting": "[3]", "value": 92.7, "unit": "nM"}
    ]},
    {"sequence": "UAGUUCUGAGGAUAUUCUCCAAAGCACAUGAGGAUCACCCAUGUCCAGUUAUGGCUUUCUGAAGAAGGCAGUCUUA [Eternabot (L2) Solution 49] (Eterna round: R97, puzzle: Exclusion 5)", "values": [
      {"measurement": "apparent KD of MS2 coat protein", "setting": "input ligand: FMN 200 uM", "value": 87.9, "unit": "nM"},
      {"measurement": "apparent KD of MS2 coat protein", "setting": "input ligand: none", "value": 36.7, "unit": "nM"}
    ]},
    {"sequence": "UAUAACCGAGGAUAUACAUGAGGAUCACCCAUGUAAUGUAGUAUAGUGUAUGUAAGAUGUAGAAGGUGGGAUGU (Eterna round: R97, puzzle: Exclusion 3)", "values": [
      {"measurement": "apparent KD of MS2 coat protein", "setting": "input ligand: FMN 200 uM", "value": 49.8, "unit": "nM"},
      {"measurement": "apparent KD of MS2 coat protein", "setting": "input ligand: none", "value": 59, "unit": "nM"}
    ]},
    {"sequence": "UAUAAGGUAGGAUAUACGAAUAAAUAGGGUAGAAUAAUAACACAUGAGGAUCACCCAUGUAGAAGGACCAAUAG [Mat - Exclusion 2 - Mod of my Tesla design - D27] (puzzle: Exclusion 2)", "values": [
      {"measurement": "apparent KD of MS2 coat protein", "setting": "[1]", "value": 58.9, "unit": "nM"},
      {"measurement": "apparent KD of MS2 coat protein", "setting": "[2]", "value": 21, "unit": "nM"},
      {"measurement": "apparent KD of MS2 coat protein", "setting": "[3]", "value": 17.2, "unit": "nM"}
    ]},
    {"sequence": "UAUACACAUGAGGAUCACCCAUGUGAGGAUAUGUACAACAACCCGACGGUGUUGUUGUACAGAAGGCACAAAUA [JR_Exclusion1_Sub027] (puzzle: Exclusion 1)", "values": [
      {"measurement": "apparent KD of MS2 coat protein", "setting": "[2]", "value": 78.9, "unit": "nM"}
    ]},
    {"sequence": "UAUAGGCUAGGAUAUACAACACUUGGUUCGAAUGUUUGGAGACAUGAGGAUCACCCAUGUAGAAGGAGCAUUUC [Leleis] (Eterna round: R96, puzzle: Exclusion 2)", "values": [
      {"measurement": "apparent KD of MS2 coat protein", "setting": "input ligand: FMN 200 uM", "value": 264, "unit": "nM"},
      {"measurement": "apparent KD of MS2 coat protein", "setting": "[4]", "value": 54, "unit": "nM"},
      {"measurement": "apparent KD of MS2 coat protein", "setting": "input ligand: none", "value": 66.5, "unit": "nM"}
    ]},
    {"sequence": "UAUAUAUAGUAAGGAUAUGUAACUAUUUUAUAAACAGAAGGUACUGACAUGAGGAUCACCCAUGUUUUAGUGUGGGCAUGUAGA [JMF's solution 29] (Eterna round: R96, puzzle: Exclusion NG 1)", "values": [
      {"measurement": "apparent KD of MS2 coat protein", "setting": "[4]", "value": 72.6, "unit": "nM"}
    ]},
    {"sequence": "UAUAUAUAGUAAGGAUAUGUAAUUAUUUCAUAAACAGAAGGUACUGACAUGAGGAUCACCCAUGUUUUAGUGUGGGCAUGUAGA [JMF's solution 43] (Eterna round: R96, puzzle: Exclusion NG 1)", "values": [
      {"measurement": "apparent KD of MS2 coat protein", "setting": "[4]", "value": 60.2, "unit": "nM"}
    ]},
    {"sequence": "UAUAUAUAGUAAGGAUAUGUAAUUAUUUUAGAAACAGAAGGUACUGACAUGAGGAUCACCCAUGUUUUAGUGUGGGCAUGUAGA [JMF's solution 45] (Eterna round: R96, puzzle: Exclusion NG 1)", "values": [
      {"measurement": "apparent KD of MS2 coat protein", "setting": "[4]", "value": 69.9, "unit": "nM"}
    ]},
    {"sequence": "UAUAUAUAGUAAGGAUAUGUAUAAAUUUUAUAAACAGAAGGUACUGACAUGAGGAUCACCCAUGUUUUAGUGUGGGCAUGUAGA [JMF's solution 52] (Eterna round: R96, puzzle: Exclusion NG 1)", "values": [
      {"measurement": "apparent KD of MS2 coat protein", "setting": "[4]", "value": 74.6, "unit": "nM"}
    ]}
  ]
}
